Data on one protein can be found in patent US20050119464.

The target in data set [1] is Fc-fragment generated by papain cleavage, including 12 amino acids of the hinge region.
Data set [2] addresses T1, H-kininogen, P01042.
T1 chain: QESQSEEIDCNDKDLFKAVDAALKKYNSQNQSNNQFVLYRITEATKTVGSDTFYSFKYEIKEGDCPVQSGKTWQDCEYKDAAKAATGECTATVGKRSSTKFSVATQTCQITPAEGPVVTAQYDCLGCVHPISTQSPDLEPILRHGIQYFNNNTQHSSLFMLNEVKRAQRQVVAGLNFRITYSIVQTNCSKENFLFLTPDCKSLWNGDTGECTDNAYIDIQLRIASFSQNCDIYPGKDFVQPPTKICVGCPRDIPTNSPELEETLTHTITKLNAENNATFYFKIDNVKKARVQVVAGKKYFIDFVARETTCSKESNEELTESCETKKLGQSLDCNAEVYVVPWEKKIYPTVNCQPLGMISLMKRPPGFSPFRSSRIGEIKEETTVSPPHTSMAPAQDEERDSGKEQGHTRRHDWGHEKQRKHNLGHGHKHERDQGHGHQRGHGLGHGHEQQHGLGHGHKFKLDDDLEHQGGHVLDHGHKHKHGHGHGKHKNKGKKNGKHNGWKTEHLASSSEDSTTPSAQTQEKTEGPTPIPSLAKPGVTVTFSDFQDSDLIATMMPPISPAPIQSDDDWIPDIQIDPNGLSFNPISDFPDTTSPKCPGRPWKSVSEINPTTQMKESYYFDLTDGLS

Data set [3] addresses T2, Z-LVG-CHN2.
T2 chain: LVG

Data set [4] deals with albumin, P02768.
Data set [5] concerns the target T3, antimicrobial peptide LL-37, P49913.
T3 chain: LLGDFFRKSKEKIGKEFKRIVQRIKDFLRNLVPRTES

The target of data set [6] is aprotinin, P00974.
Data set [7] addresses T4, cystatin C from chicken, P01038.
T4 chain: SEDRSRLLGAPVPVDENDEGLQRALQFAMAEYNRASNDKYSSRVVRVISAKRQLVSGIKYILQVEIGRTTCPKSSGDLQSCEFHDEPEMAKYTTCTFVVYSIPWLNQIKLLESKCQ

Data set [8] addresses T5, cystatin C from mouse, P21460.
T5 chain: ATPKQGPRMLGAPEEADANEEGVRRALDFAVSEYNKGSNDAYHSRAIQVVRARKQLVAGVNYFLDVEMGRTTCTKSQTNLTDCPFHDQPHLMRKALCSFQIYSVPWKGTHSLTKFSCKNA

For data set [9], the target named is T6, cystatin C from rat, P14841.
T6 chain: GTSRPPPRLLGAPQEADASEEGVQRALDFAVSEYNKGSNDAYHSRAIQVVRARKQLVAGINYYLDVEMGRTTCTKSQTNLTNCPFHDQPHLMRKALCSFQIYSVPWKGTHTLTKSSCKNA

Data set [10] addresses T7, cystatin C, P01034.
T7 chain: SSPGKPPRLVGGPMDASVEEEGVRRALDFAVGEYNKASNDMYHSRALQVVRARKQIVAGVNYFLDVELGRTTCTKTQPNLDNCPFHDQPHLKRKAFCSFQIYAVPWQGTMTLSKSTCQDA

Data set [11] addresses T8, cystatin D, P28325.
T8 chain: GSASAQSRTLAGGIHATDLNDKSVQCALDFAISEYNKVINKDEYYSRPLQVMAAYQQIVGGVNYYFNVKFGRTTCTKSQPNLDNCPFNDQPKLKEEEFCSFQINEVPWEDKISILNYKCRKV

The target of data set [12] is T9, fibrinogen, P02671.
T9 chain 1: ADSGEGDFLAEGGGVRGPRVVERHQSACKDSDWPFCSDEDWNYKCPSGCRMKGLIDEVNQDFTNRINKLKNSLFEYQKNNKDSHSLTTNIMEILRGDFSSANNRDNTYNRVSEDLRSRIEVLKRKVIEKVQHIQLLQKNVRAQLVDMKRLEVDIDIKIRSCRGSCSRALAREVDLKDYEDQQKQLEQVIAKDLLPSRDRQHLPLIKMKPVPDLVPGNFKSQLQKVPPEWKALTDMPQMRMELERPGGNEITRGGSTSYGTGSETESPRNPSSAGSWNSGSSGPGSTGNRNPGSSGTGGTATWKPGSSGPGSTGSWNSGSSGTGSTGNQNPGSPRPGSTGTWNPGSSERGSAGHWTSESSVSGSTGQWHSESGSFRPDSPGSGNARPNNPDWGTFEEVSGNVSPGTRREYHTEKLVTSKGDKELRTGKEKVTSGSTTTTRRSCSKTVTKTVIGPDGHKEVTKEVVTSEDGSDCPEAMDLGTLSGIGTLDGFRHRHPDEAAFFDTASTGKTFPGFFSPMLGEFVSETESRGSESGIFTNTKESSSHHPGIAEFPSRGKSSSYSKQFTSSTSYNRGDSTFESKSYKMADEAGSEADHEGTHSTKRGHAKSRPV
T9 chain 2: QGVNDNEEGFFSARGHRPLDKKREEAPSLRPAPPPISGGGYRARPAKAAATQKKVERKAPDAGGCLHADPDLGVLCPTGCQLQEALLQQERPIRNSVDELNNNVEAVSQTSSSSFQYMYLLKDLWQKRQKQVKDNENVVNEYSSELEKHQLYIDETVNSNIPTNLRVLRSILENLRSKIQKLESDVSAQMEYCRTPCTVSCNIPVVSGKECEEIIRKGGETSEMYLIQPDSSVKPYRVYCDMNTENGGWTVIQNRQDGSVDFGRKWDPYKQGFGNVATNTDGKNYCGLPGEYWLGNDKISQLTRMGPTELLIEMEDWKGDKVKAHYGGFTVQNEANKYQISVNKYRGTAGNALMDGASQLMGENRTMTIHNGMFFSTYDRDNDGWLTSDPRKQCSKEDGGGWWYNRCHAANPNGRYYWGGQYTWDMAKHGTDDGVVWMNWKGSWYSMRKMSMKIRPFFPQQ
T9 chain 3: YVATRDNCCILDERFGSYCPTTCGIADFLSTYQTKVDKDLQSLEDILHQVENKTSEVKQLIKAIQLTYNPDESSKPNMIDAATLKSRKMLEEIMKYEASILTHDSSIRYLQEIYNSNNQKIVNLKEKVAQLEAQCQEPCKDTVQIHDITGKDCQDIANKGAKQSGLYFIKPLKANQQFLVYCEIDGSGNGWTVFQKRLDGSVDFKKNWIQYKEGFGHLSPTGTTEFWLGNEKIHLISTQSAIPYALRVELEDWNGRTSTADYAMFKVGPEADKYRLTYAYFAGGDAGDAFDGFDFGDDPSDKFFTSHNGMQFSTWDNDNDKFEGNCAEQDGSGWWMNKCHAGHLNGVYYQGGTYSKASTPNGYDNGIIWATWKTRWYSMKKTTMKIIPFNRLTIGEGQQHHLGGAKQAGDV

Data set [13] addresses fibronectin, P02751.
The target in data set [14] is lactoferrin, P02788.
Data set [15] has as its target laminin.
The target in data set [16] is synthetic peptide homologous to amino acids 234 to 241 of human IgG.
Data set [17] has as its target the different subclasses of IgG.
Data set [18] concerns the target transferrin, P02787.
The target of data set [19] is whole human plasma.
Data set [20] addresses α 1-antitrypsin, P01009.

Chain of α 1-antitrypsin, P01009 (P01009 whole entry, looked up): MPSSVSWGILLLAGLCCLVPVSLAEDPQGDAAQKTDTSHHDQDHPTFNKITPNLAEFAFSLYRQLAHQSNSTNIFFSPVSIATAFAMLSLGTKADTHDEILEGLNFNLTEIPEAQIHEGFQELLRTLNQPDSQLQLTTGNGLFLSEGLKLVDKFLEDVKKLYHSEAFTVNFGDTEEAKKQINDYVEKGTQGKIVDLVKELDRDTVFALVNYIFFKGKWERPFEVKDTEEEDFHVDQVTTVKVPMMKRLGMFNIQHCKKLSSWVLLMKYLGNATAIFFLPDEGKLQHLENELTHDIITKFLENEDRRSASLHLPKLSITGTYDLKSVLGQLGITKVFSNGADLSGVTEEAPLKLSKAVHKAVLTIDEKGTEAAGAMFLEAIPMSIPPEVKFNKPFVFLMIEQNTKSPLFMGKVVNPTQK
Chain of transferrin, P02787 (P02787 20-698): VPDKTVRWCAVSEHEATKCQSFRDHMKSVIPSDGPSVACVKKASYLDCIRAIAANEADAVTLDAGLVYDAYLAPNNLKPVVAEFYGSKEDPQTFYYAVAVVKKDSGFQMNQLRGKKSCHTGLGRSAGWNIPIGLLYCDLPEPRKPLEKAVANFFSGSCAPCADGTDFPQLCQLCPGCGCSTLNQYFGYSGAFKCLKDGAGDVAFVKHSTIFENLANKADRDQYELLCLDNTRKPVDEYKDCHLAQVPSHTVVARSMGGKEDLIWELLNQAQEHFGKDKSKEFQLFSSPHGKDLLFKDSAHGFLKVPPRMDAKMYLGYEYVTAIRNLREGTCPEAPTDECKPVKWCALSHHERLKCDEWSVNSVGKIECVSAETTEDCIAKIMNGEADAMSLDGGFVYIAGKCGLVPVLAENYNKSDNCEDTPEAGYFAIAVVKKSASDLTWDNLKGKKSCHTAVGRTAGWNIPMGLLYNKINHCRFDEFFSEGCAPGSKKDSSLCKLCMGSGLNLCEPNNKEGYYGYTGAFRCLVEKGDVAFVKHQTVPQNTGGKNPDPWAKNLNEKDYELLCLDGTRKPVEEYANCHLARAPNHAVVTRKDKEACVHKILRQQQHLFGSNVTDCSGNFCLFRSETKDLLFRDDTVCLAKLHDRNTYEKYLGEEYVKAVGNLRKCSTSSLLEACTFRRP
Chain of lactoferrin, P02788 (P02788 20-710): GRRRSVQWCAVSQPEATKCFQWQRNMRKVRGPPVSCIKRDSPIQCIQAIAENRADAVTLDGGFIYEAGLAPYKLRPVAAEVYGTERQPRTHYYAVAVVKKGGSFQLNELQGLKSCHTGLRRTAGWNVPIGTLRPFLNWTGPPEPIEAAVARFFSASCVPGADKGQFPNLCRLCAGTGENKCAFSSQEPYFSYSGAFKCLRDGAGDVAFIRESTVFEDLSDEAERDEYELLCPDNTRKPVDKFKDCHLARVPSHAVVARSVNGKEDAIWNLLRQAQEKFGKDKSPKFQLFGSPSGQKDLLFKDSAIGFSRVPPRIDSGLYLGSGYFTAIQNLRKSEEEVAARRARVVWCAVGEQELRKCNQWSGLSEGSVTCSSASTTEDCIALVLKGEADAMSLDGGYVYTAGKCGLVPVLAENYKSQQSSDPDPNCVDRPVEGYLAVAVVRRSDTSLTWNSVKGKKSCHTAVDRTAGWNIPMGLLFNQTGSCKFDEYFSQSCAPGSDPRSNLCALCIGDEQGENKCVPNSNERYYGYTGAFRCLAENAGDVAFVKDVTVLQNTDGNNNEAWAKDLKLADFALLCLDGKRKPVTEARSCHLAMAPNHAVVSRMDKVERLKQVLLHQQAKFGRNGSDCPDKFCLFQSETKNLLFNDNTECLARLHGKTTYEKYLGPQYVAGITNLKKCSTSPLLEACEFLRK
Chain of fibronectin, P02751 (P02751 other isoform, or with tags, fused parts or gaps): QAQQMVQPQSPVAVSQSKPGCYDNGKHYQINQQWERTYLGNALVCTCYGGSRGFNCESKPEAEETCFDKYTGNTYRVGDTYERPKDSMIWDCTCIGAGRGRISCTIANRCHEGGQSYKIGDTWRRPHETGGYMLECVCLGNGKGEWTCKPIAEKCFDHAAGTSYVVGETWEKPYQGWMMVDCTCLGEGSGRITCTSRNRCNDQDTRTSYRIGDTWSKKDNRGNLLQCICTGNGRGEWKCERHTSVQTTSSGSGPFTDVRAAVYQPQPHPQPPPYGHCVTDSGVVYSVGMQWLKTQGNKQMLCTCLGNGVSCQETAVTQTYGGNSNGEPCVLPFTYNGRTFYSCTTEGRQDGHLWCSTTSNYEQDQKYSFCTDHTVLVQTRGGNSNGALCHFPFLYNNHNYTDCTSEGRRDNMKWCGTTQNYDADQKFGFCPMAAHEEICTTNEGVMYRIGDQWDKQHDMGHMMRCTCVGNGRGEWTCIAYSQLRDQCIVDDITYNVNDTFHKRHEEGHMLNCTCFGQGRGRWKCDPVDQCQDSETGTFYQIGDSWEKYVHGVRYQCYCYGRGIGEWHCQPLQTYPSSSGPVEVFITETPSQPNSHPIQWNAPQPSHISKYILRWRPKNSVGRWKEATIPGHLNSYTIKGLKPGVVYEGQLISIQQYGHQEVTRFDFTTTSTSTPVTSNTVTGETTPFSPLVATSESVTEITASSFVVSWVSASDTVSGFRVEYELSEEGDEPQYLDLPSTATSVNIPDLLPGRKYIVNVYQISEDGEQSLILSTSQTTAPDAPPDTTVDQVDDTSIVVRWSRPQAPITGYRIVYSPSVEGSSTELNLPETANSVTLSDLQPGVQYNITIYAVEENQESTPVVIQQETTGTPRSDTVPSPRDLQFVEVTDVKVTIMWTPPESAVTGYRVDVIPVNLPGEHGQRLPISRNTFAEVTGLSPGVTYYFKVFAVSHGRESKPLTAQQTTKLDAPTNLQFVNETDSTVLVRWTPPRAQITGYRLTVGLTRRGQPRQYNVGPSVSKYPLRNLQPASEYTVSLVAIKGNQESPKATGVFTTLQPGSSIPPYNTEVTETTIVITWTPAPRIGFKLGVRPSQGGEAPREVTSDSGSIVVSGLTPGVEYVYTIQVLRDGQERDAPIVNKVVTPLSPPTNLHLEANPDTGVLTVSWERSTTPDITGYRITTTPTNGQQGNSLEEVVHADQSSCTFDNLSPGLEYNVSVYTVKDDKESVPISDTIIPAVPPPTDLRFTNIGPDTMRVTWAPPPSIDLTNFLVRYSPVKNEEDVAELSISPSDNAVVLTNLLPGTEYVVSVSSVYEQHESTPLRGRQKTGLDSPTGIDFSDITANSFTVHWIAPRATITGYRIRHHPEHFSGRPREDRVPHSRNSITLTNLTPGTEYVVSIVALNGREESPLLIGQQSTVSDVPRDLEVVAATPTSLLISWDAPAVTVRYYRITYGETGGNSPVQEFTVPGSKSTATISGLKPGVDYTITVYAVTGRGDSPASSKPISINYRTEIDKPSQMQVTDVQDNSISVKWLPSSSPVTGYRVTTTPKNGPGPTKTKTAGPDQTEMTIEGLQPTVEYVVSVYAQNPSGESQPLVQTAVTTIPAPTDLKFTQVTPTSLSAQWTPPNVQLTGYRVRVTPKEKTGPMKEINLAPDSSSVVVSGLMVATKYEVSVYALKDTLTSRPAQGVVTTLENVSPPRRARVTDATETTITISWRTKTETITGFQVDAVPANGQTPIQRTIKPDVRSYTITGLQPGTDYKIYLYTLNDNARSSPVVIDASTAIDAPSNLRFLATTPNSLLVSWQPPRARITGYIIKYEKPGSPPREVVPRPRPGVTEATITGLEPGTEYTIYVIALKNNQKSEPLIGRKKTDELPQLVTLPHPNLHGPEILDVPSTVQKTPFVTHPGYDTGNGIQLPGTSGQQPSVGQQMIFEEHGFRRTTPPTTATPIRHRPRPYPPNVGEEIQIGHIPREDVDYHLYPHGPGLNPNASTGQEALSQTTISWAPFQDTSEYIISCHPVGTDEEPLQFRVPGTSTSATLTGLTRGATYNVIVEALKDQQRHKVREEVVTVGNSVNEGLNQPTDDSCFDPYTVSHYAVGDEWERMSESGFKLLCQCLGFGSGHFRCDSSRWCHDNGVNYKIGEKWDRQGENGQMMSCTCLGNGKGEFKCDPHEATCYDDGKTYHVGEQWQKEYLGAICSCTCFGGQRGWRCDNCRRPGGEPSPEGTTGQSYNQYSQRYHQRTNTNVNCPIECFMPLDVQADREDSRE

B1: IdeS (Immunoglobulin G-degrading enzyme of S. pyogenes), purified from culture supernatant of S. pyogenes strain AP1 (protein)
chain: DSFSANQEIRYSEVTPYHVTSVWTKGVTPPANFTQGEDVFHAPYVANQGWYDITKTFNGKDDLLCGAATAGNMLHWWFDQNKDQIKRYLEEHPEKQKINFNGEQMFDVKEAIDTKNHQLDSKLFEYFKEKAFPYLSTKHLGVFPDHVIDMFINGYRLSLTNHGPTPVKEGSKDPRGGIFDAVFTRGDQSKLLTSRHDFKEKNLKEISDLIKKELTEGKALGLSHTYANVRINHVINLWGADFDSNGNLKAIYVTDSDSNASIGMKKYFVGVNSAGKVAISAKEIKEDNIGAQVLGLFTLSTGQDSWNQTN
As for B1, in [1], the cleavage result is “a Fc-fragment generated by papain cleavage, including 12 amino acids of the hinge region is cleaved by IdeS”. In addition, the cleavage products result is reported as “No cleavage products could be detected” in [2]; “No cleavage products could be detected” in data set [4]; “No cleavage products could be detected” in data set [6]; “No cleavage products could be observed” in data set [7]; “No cleavage products could be observed” in [8]; “No cleavage products could be observed” in data set [9]. Further, the cleavage products result in data set [10], in data set [11], in data set [12], in data set [13], in [14] and in data set [15] was “No cleavage products could be detected” throughout. Moreover, the cleavage products entry in [18], in data set [19] and in data set [20] was “No cleavage products could be detected” throughout. Moreover, the “cleavage of the peptide” value in [3] is given as “Neither was the synthetic peptide Z-LVG-CHN2, which inhibits IdeS activity, cleaved by excess IdeS”. Further, the “degradation of the peptide” value in [5] and in [16] was “did not reveal any degradation of the peptides” throughout. The IdeS digestion entry in data set [17] is recorded as “all were susceptible for IdeS digestion”.
